Test results published in patent US20100210517A1.
Positions of bridges follow the written chain, without caps; N, C: chain ends. No end group written: not given here.

B1: mRAP-8c (peptide)
peptide: CGKHFEAKIEKHNHYQKQLEIAHEKLRHAESVGDGERVSRSREKHALLEGRTKELGYTVKKHLQDGC
modifications: disulfide 1-67 (inferred)
B2: mRAP-14c (peptide)
peptide: CEAKIEKHNHYQKQLEIAHEKLRHAESVGDGERVSRSREKHALLEGRTKELGYTVKKHGC
modifications: disulfide 1-60
B3: Heptide (peptide)
peptide: CGKHFEAKIEKHNHYQKQLEIAHEKLRHAESVGDAERVSRSREKHALLEGRTKELGYTVKKHLQDACG
modifications: disulfide 1-67 (inferred)

What follows are binders tested against recombinant human LRP1 ligand binding cluster II (amino acids 786-1165, C-terminal Fc) (human) (assay: solid-phase binding assay, receptor coated on plate).
Sequence of recombinant human LRP1 ligand binding cluster II (amino acids 786-1165, C-terminal Fc) (human) (Q07954 786-1165): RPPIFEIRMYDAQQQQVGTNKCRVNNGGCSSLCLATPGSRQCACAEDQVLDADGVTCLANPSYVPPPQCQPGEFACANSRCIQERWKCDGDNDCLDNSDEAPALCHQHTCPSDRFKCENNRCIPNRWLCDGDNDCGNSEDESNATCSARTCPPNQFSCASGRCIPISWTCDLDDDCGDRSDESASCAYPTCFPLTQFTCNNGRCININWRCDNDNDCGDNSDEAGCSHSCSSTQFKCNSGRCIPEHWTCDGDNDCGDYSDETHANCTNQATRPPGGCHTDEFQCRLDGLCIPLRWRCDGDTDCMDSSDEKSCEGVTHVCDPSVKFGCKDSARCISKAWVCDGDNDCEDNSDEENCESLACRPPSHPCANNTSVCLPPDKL

Binder	Kd [nM]
B1	4 to 6
B2	21
B3	3.5
